# Source: PMC12654856, “Exploring the Scope of Functionalized N-Acylneuraminic Acid β-Methyl Glycosides as Inhibitors of Neisseria meningitidis CMP-Sialic Acid Synthetase” (Molecules, 2025)
# How the values were obtained:
# [1] = tested on: Nc1ccn([C@@H]2O[C@H](COP(=O)(O)OP(=O)(O)OP(=O)(O)O)[C@@H](O)[C@H]2O)c(=O)n1; test: purified protein; settings: Mg2+ CTP binds prior to Neu5Ac
# [2] = tested on: CC(=O)N[C@H]1[C@H]([C@H](O)[C@H](O)CO)OC(O)(C(=O)O)C[C@@H]1O; test: purified protein; settings: Mg2+ active site; binds after CTP
substance,measurement,setting,value
NmB CMP-sialic acid synthetase (CSS) (Neisseria meningitidis MC58),Km,[1],22 µM
same,Km,[2],37 µM
